Reference: publication PMC8625570, “Selectivity Determinants of RHO GTPase Binding to IQGAPs” (International Journal of Molecular Sciences, 2021)
Values joined by “and” are separate entries in the source; they are usually repeats but may differ in a detail not shown here. Equal entries are not always repeated.

B1: IQGAP1^C794 (C-terminal half of human IQGAP1 with the GRD, RGCT and CT domains) (domain or fragment, UniProt P46940 863-1657, looked up)
chain: DPPMVVVRKFVHLLDQSDQDFQEELDLMKMREEVITLIRSNQQLENDLNLMDIKIGLLVKNKITLQDVVSHSKKLTKKNKEQLSDMMMINKQKGGLKALSKEKREKLEAYQHLFYLLQTNPTYLAKLIFQMPQNKSTKFMDSVIFTLYNYASNQREEYLLLRLFKTALQEEIKSKVDQIQEIVTGNPTVIKMVVSFNRGARGQNALRQILAPVVKEIMDDKSLNIKTDPVDIYKSWVNQMESQTGEASKLPYDVTPEQALAHEEVKTRLDSSIRNMRAVTDKFLSAIVSSVDKIPYGMRFIAKVLKDSLHEKFPDAGEDELLKIIGNLLYYRYMNPAIVAPDAFDIIDLSAGGQLTTDQRRNLGSIAKMLQHAASNKMFLGDNAHLSIINEYLSQSYQKFRRFFQTACDVPELQDKFNVDEYSDLVTLTKPVIYISIGEIINTHTLLLDHQDAIAPEHNDPIHELLDDLGEVPTIESLIGESSGNLNDPNKEALAKTEVSLTLTNKFDVPGDENAEMDARTILLNTKRLIVDVIRFQPGETLTEILETPATSEQEAEHQRAMQRRAIRDAKTPDKMKKSKSVKEDSNLTLQEKKEKIQTGLKKLTELGTVDPKNKYQELINDIARDIRNQRRYRQRRKAELVKLQQTYAALNSKATFYGEQVDYYKSYIKTCLDNLASKGKVSKKPREMKGKKSKKISLKYTAARLHEKGVLLEIEDLQVNQFKNVIFEISPTEEVGDFEVKAKFMGVQMETFMLHYQDLLQLQYEGVAVMKLFDRAKVNVNLLIFLLNKKFYGK
B2: CDC42 (aa 1-178) (natural protein)
chain: not shown
B3: IQGAP2^C795 (C-terminal fragment of IQGAP2) (domain or fragment, human, UniProt Q13576 780-1575, looked up)
chain: PLTVIRKFVYLLDQSDLDFQEELEVARLREEVVTKIRANQQLEKDLNLMDIKIGLLVKNRITLEDVISHSKKLNKKKGGEMEILNNTDNQGIKSLSKERRKTLETYQQLFYLLQTNPLYLAKLIFQMPQNKSTKFMDTVIFTLYNYASNQREEYLLLKLFKTALEEEIKSKVDQVQDIVTGNPTVIKMVVSFNRGARGQNTLRQLLAPVVKEIIDDKSLIINTNPVEVYKAWVNQLETQTGEASKLPYDVTTEQALTYPEVKNKLEASIENLRRVTDKVLNSIISSLDLLPYGLRYIAKVLKNSIHEKFPDATEDELLKIVGNLLYYRYMNPAIVAPDGFDIIDMTAGGQINSDQRRNLGSVAKVLQHAASNKLFEGENEHLSSMNNYLSETYQEFRKYFKEACNVPEPEEKFNMDKYTDLVTVSKPVIYISIEEIISTHSLLLEHQDAIAPEKNDLLSELLGSLGEVPTVESFLGEGAVDPNDPNKANTLSQLSKTEISLVLTSKYDIEDGEAIDSRSLMIKTKKLIIDVIRNQPGNTLTEILETPATAQQEVDHATDMVSRAMIDSRTPEEMKHSQSMIEDAQLPLEQKKRKIQRNLRTLEQTGHVSSENKYQDILNEIAKDIRNQRIYRKLRKAELAKLQQTLNALNKKAAFYEEQINYYDTYIKTCLDNLKRKNTRRSIKLDGKGEPKGAKRAKPVKYTAAKLHEKGVLLDIDDLQTNQFKNVTFDIIATEDVGIFDVRSKFLGVEMEKVQLNIQDLLQMQYEGVAVMKMFDKVKVNVNLLIYLLNKKFYGK
notes: IQGAP2, aa 780-1575; also called IQGAP2^C975

Columns and labels:
RAC1 (aa 1-179) [1] = target: T1, RAC1 (aa 1-179) (human, UniProt P63000 1-179); test: cell-based or functional assay
RAC1 (aa 1-179) [2] = target: T1, RAC1 (aa 1-179); test: SEC; analytical SEC, Superdex 200 10/300, 30 mM Tris/HCl pH 7.5, 150 mM NaCl, 5 mM MgCl2; IQGAP1^C794 and IQGAP2^C795 alone or mixed with CDC42•GppNHp or RAC1•GppNHp; fractions on Coomassie-stained SDS-PAGE; MW from a calibration curve; set-up: reference not given here; settings: both partners purified
CDC42 (aa 1-178) [3] = target: B2; test: as above; set-up: reference not given here; settings: both partners purified
Sequence of CDC42 (aa 1-178) (P60953 1-178): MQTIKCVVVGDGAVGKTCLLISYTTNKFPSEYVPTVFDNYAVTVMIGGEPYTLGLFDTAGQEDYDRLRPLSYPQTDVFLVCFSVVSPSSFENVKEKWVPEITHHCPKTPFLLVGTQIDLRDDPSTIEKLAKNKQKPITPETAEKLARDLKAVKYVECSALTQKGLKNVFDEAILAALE

[4] = target: the molecule itself; test: as above; set-up: reference not given here
RAC1 T25K/N26D = RAC1 T25K/N26D (human, UniProt P63000 1-179, T25K | N26D); test: stopped-flow fluorescence spectrometry; kon from 0.2 µM mGppNHp-bound RHO GTPase with 2-8 µM IQGAP1^C794; koff by displacing with 10 µM unlabeled RAC1-GppNHp from 2 µM IQGAP1^C794 with 0.2 µM GTPase; Kd calculated from the rate constants; 25 °C; settings: both partners purified
RAC1 M45E/N52E = RAC1 M45E/N52E (human, UniProt P63000 1-179, M45E | N52E); test: as above; settings: both partners purified
RAC1 Q74D = RAC1 Q74D (human, UniProt P63000 1-179, Q74D); test: as above; settings: both partners purified
RAC2 (aa 1-192) [5] = target: T2, RAC2 (aa 1-192) (human, UniProt P15153 1-192); test: as above; settings: both partners purified
RAC3 (aa 1-192) [6] = target: T3, RAC3 (aa 1-192) (human, UniProt P60763 1-192); test: as above; settings: both partners purified
CDC42 (aa 1-178) [7] = target: B2; test: as above; settings: both partners purified
[8] = target: B1; test: stopped-flow fluorescence spectrometry; association (kobs): 2 µM IQGAP1^C794 or IQGAP2^C795 mixed with 0.2 µM mGppNHp-bound RHO GTPase; 30 mM Tris-HCl pH 7.5, 10 mM K2HPO4/KH2PO4 pH 7.4, 2 mM MgCl2, 3 mM DTT, 25 °C; settings: both partners purified
[9] = target: B3; test: as above; settings: both partners purified
RAC2 (aa 1-192) [10] = target: T2, RAC2 (aa 1-192); test: as above; settings: both partners purified
RAC3 (aa 1-192) [11] = target: T3, RAC3 (aa 1-192); test: as above; settings: both partners purified

Binder | p50^GAP-stimulated GTP hydrolysis of tamraGTP-bound RAC1 (0.2 µM RAC1, 10 µM p50^GAP) in the presence of IQGAP1^C794 (RAC1 (aa 1-179) [1]) | stoichiometry N (RAC1 (aa 1-179) [2]) | stoichiometry N (CDC42 (aa 1-178) [3]) | stoichiometry N [4] | binding result (RAC1 T25K/N26D) | binding result (RAC1 M45E/N52E) | binding result (RAC1 Q74D) | Kd (RAC2 (aa 1-192) [5]) | fold faster kon than with RAC1 (RAC2 (aa 1-192) [5]) | fold lower Kd than with RAC1 (RAC2 (aa 1-192) [5]) | fold lower koff than with RAC1 (RAC2 (aa 1-192) [5]) | binding result (RAC3 (aa 1-192) [6]) | fold higher binding affinity than with RAC1 (CDC42 (aa 1-178) [7]) | binding result [8] | binding result [9] | binding result (RAC2 (aa 1-192) [10]) | binding result (RAC3 (aa 1-192) [11])
B1 | 25 fold | 1 IQGAP per GTPase (printed as 2:2) | 1 IQGAP per GTPase (printed as 2:2) | 2 | binds | binds | binds | 27 nM | 4 fold | 34 fold | 8 fold | binds | 3 fold | – | – | – | –
B2 | – | – | – | 2 | – | – | – | – | – | – | – | – | – | binds | binds | – | –
B3 | – | 1 IQGAP per GTPase (printed as 2:2) | 1 IQGAP per GTPase (printed as 2:2) | 3 and 4 | – | – | – | – | – | – | – | – | – | – | – | binds | binds
